The values that follow come from the supplement of paper PMC12042874.

± gives the uncertainty stated by the source.

This data set can be described thus: amyloid nucleation score (Sup35N fusion, yeast selection) (log enrichment); library NNK1; higher = more nucleation; inactive = no reads after selection. The procedure, abridged:
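The nucleation score is the DiMSum log enrichment of output over input reads, centred on the mode score of non-aggregating sequences. Only sequences with 100 or more input reads were scored, using Illumina sequencing of input and output plasmid inserts. Psi-negative yeast expressing Sup35N fused to peptides of 20 random codons were induced 24 hours with 100 μM copper sulfate and grown 7 days at 30°C on medium lacking adenine and uracil.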
FKYRVGDTSCMVCNVWYGGD: the amyloid nucleation score was 7.552 ± 0.057.

Consider YFLTFRFCFSVNEVIDPWCA, for which the amyloid nucleation score was -0.725 ± 1.1. As for TVRVVDLGQVVGSGVMASMP, the figure is 1.23 ± 0.17; as for SGTAVSIVAWYTMTQLDHAG, -0.001 ± 0.37. Take KQRIFEMLPWGPRPLYPVWG: the amyloid nucleation score was 0.405 ± 0.43.

The substance VSWHGSVLHRACMKWVCMCG displayed an amyloid nucleation score of 0.51 ± 0.79. Substance WNYTLGRCRTLGYAVAVLDI returned an amyloid nucleation score of -0.389 ± 1. Turning to IRMVMGTNKFDHVKSRDN, the amyloid nucleation score entry was “inactive”.

In turn, LLQVWYFFR gave an amyloid nucleation score of 0.296 ± 0.66. The figure for VFLIEQPMERCK is 0.199 ± 0.22; for VHSWQVVRYFRFLVLYSWDR it is 0.539 ± 0.42. Substance MVVVLLVD yielded an amyloid nucleation score of -0.438 ± 0.9. The figure for DTSNHEGE is -0.554 ± 1.7. The figure for IKVQASQDP is 9.252 ± 0.05; for EFIGFRLFIQVNSDFM it is 1.69 ± 0.23. The figure for SWFSRMGTCYDFNSKWSCLL is 0.654 ± 0.66; for ALLVPGILW it is 3.34 ± 0.078. Take RVYENNIY: the amyloid nucleation score is -1.05 ± 1.7. As for DVRAWVMARVGRGSELGARG, the figure is 0.075 ± 0.84; as for VLEYKD, -1.97 ± 2.4.

With QRYKFLCLRRVENFGGYMSA, the amyloid nucleation score is 2.54 ± 0.24.

VINWLCWVYLECLWYYWMVG: the amyloid nucleation score entry was “inactive”. As to ILFGTAHCIIG, the amyloid nucleation score stood at 1.52 ± 0.13. The figure for FFWSYAYIVIRLVSTKCWY is 0.011 ± 0.28; for AYRNKETMCSLRTCRMVCSR it is 0.206 ± 0.34; for AWHTRPQTKTERPLRPVFRA it is -0.733 ± 0.69.

Substance MVSNAGDIPMRRLESLRLLR registered an amyloid nucleation score of 0.748 ± 0.53. In turn, HNVFDNLHMDSDKRMANSV came in with an amyloid nucleation score of 0.428 ± 0.4. As for NLVYTAIAPPFASFRK, the figure is 0.005 ± 0.65; as for NIITIETGGRKVGTFMMYSI, “inactive”.

SQPSMPNSVGGDTFG gave an amyloid nucleation score of -0.658 ± 0.49. DCCISVSHSGRAALYVKVEI registered an amyloid nucleation score of 0.022 ± 0.46. For ENTLRSYRLGHKVEWLMELG, the amyloid nucleation score is -0.363 ± 0.39. YLTYAPQVWLSAGFNSNEGS registered an amyloid nucleation score of 5.71 ± 0.078. The figure for ARRLFAAMLLRDWVPLTSQM is 1.27 ± 0.66.

TSVNMVIYILLVNFMKFLVG came in with an amyloid nucleation score of 1.37 ± 0.45. Consider SNHQLEYRL, for which the amyloid nucleation score stood at 1.52 ± 0.55. LYGSNVVLSVRCGMHTTHCY: the amyloid nucleation score is 2.81 ± 0.24. The substance WCRIVG gave an amyloid nucleation score of 0.227 ± 0.57.

RFVWVMSYGPSTYILHVWFV showed an amyloid nucleation score of 0.248 ± 0.39.

Regarding SNVFYVYRVVKSCIIFDSVL, the amyloid nucleation score was 2.6 ± 0.076. In turn, VNIKLLVVRAVFVILKDMGK gave an amyloid nucleation score of 2.16 ± 0.12. As to SRYKTPSVDGVFCSALRGSG, the amyloid nucleation score worked out at 0.301 ± 0.61.

Take LDWSMLRTELVIGILRSGRE: the amyloid nucleation score was determined as 0.248 ± 0.52. The entry for QTRRYTVNCLL is “inactive”; for ITYKLFVISCNEKRNLICHN it is -0.477 ± 0.32. As for CIMLRMFVYESYSVCVVVA, the entry is “inactive”. The substance YSMIPKITSKP showed an amyloid nucleation score of 0.028 ± 0.29. As for FICFYVVSYTIMSLLFDTLG, the figure is 0.713 ± 0.92; as for PIFSYFALFLGLIKHCIMSQ, -0.238 ± 0.53.

For the substance LKCLLKHGFTRNG, the amyloid nucleation score is -2.08 ± 2.7. As for FFFIQTSPLHAQYAISLVLR, the figure is -0.057 ± 0.52; as for IYLKWHFADY, 0.529 ± 0.45; as for TCTYVYFLCSSIYARNITFM, 8.838 ± 0.057.

Substance QFFQPCVKC showed an amyloid nucleation score of 1.06 ± 0.57. With RSVNSETQKFMRWFMRVWTP, the amyloid nucleation score is -0.332 ± 0.33. Substance NNANCMCSNTCHVFWANHAR returned an amyloid nucleation score of 6.193 ± 0.061.

VASRFVCWCRGQAQWVSQCN showed an amyloid nucleation score of 0.434 ± 0.45. STTSMPDWLNVWVSRSSSVV: the amyloid nucleation score was 1.06 ± 0.28. As for IENSIGGMQLGVSISYMSGT, the figure is 0.208 ± 0.41; as for VVSLNE, 0.915 ± 0.9; as for CVLFESQ, -0.188 ± 0.44. As for SMWTKKLFMFHNGI, the figure is 0.201 ± 0.56; as for YCLFNLESG, 0.315 ± 0.53. As for IGAHFQSNLVIKVNSLEN, the figure is 0.697 ± 0.63. In turn, PVDNYFIMTTHDKLNRPGHD yielded an amyloid nucleation score of -1.85 ± 1. The figure for VCLSSLIRMCKYSFPDGTGH is 6.813 ± 0.051. In turn, SRLGLSSDY yielded an amyloid nucleation score of 0.092 ± 0.33.

TRRHKYFEWD gave an amyloid nucleation score of -0.285 ± 0.8. Regarding DRVWCHETKRSFYIMCKNNI, the amyloid nucleation score came out at 0.052 ± 0.24. The substance GRLGITSMMPLGCVINWPRG registered an amyloid nucleation score of 3.02 ± 0.13.

HNCTTGVTFKSEIASILVQP: the amyloid nucleation score was -0.261 ± 0.4.

In turn, DGLSFLMEHLCVNTLCKGSR gave an amyloid nucleation score of -0.075 ± 0.34. On to ISNYNFNRWHAVSNLGRCIS, for which the amyloid nucleation score is -0.033 ± 0.73. In turn, RFETIDANKVILSVKCRWAK showed an amyloid nucleation score of 2.56 ± 0.17. Consider CFSKLEISFDESFR, for which the amyloid nucleation score is -0.154 ± 0.28. Turning to NTHKLSGLI, the amyloid nucleation score was determined as 0.149 ± 0.41. As for NPGPYRARHSSDSWRGNYNE, the figure is -0.366 ± 0.58; as for HYACRRSVERSKRRGVRGSM, 0.039 ± 0.46; as for NNTFVIVKFEAKDTFVEGVR, 1.57 ± 0.3. As for ITEVLKNVKKWFCFIRISVG, the figure is 0.113 ± 0.5; as for SFFRNLLYFMIRCGNGYRET, -0.109 ± 0.93; as for AFKWTSCYIFPLNWRKLFN, -0.336 ± 0.34.

SWMKSLLFVFGLTCQMRECV showed an amyloid nucleation score of -0.544 ± 0.61. The figure for KVYIIFVRGEDAFKLRGAAN is -0.529 ± 1.5; for IAAVFHCKNSLMY it is 2 ± 0.2; for SWRFDCYDRTWYNMYLEHLS it is 0.232 ± 0.23. For the substance MHEGKRLITGIDWWYVGVCW, the amyloid nucleation score is 0.094 ± 0.9. Substance SGAYLNKGFSVLAFYIIIVK yielded an amyloid nucleation score of 1.81 ± 0.26. As for SPVRIYTSRSIMRFNVRKPT, the figure is -0.306 ± 0.9; as for RWVVSVPISCARACFSG, 0.579 ± 0.73. As for FSCVIGFPKHRNDTLVTERA, the figure is 6.65 ± 0.067.

SYVFDKGFIVNVITRCRKKM yielded an amyloid nucleation score of 1.44 ± 0.34. The figure for SLIYNRIRFLDGF is 0.925 ± 1.1; for RSCLMSC it is 0.141 ± 0.54; for GKVFVCSIVYSIRMSITSRI it is “inactive”. As for NLERKEVLSREGCICANFTR, the figure is -0.345 ± 0.45; as for FGSMFVRLFFGSLNKYGMVK, -0.712 ± 0.92; as for AAPLNMCLANTGFAQFLTSI, -0.618 ± 1.2. In turn, TVYSMPKVTKTYGGFPAKSH showed an amyloid nucleation score of 0.312 ± 0.34. Take RAPTFMMNLDG: the amyloid nucleation score turned out to be 3.34 ± 0.12. As for CWLRIGSSFRRARSGWTCDS, the figure is -0.834 ± 0.91; as for PTIFFDYAHYQTGRVLMAL, 0.408 ± 0.35; as for SPYGALFLDQLFYYQGADRG, 1.05 ± 0.84. For LMPLLS, the amyloid nucleation score amounted to 0.025 ± 0.36. As for RQMLLPGMRVGKRC, the figure is 0.144 ± 0.36.

In turn, SWYVVG showed an amyloid nucleation score of -0.373 ± 0.97. The figure for QNGRASVYFTGLAILYILID is 1.02 ± 0.25; for FAFIDMHKGC it is 1.69 ± 0.17; for ALYPPAGAGLRECRARSLSA it is 0.341 ± 0.5. Turning to WYRGMHLVARRFMTYLARKY, the amyloid nucleation score was found to be 1.32 ± 0.65. Turning to SFVHYFKESLAVSSLIRLSN, the amyloid nucleation score is -0.333 ± 1.1. As for PNNKE, the amyloid nucleation score is 0.638 ± 0.33. The entry for CQYRTTYSASFLNRS is “inactive”; for LDVKSYAQVKRFSWSHSAFM it is 1.07 ± 0.4. As for RGIKCPVSCKIASSRREWWV, the figure is 0.789 ± 0.37. The figure for RCTSSPFVVL is 0.668 ± 0.82; for KSSWSSAS it is -0.076 ± 0.3; for VKSWKLERRMRVAMLDTLVI it is 0.367 ± 1.2.

The substance MKAVELSPLKYTCLAN yielded an amyloid nucleation score of 0.313 ± 0.74.

Regarding SQLFYAILSIHYWCVTFFRC, the amyloid nucleation score turned out to be 0.642 ± 0.33. The substance FFFYKPMNVEAIRDLHWPYS showed an amyloid nucleation score of 6.229 ± 0.06.

LVKNHYHFMANLGCP: the amyloid nucleation score is 0.133 ± 1.4. For IWLDCIGRYSGVYRHVINDV, the amyloid nucleation score is -0.863 ± 0.37. HTSCRTVQHLKVWFPVK yielded an amyloid nucleation score of 1.25 ± 0.74.

Consider WYRQSAFNVLTDSLIILLVC, for which the amyloid nucleation score is 4.99 ± 0.07.

On to ARVTVNGFLWCYNLGIRLDF, for which the amyloid nucleation score was -0.779 ± 1.6. NLFNYLSFD yielded an amyloid nucleation score of -0.675 ± 0.49.

Substance MAGLL came in with an amyloid nucleation score of -0.546 ± 1.1. As for FLVMREFMIGCVRAG, the figure is 0.186 ± 0.97; as for DTVVGSAFCQGMYLSESVML, 1.56 ± 0.76. On to RFWVYGKGILMVLGAFFCL, for which the amyloid nucleation score worked out at 0.07 ± 0.56. As for GFGGSGLTWGSRVCGV, the figure is -1.5 ± 2.4; as for YRWVFKCRCRSPGGESKSSR, 5.9 ± 0.097. Take SSVKTVDLNCI: the amyloid nucleation score was -0.125 ± 0.37. Turning to LYSNVRRFVWRGTWMWSRRC, the amyloid nucleation score worked out at 0.969 ± 0.61. On to SSMSPTVYVVRR, for which the amyloid nucleation score is 0.163 ± 0.9. As for KLLSGGVNTWRPTGTSRLEI, the figure is -0.053 ± 0.46; as for RAGTLLPVLLDKVKRCSKLW, 0.222 ± 0.7; as for NWICKRVIYEYFSTQIYSSG, -0.133 ± 0.55.
